Here are results for 30 sequences from the nanobody polyreactivity screen of Harvey et al. (2022).

The data set is described as follows: yeast display, Sf9 membrane polyspecificity reagent, FACS + sequencing; frameworks hold sequencing errors. Put shortly:
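A synthetic nanobody library was expressed on Saccharomyces cerevisiae BJ5465 by galactose induction for 36–48 hours. The library was stained for 1 hour at 4 °C with 10% biotinylated, detergent-solubilized Sf9 membrane reagent and enriched with streptavidin microbeads before FACS. Low and high (top ~1%) gates were set on anti-HA fluorescence for expression and streptavidin fluorescence for reagent binding, and each polyreactivity label reflects the gate of origin.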
Consider “QVQLVESGGGLVQAGGSLRLSCAASGFTVRKYAMGWYRQAPGKERELVAAITWSGGRTYYADSVKGRFTISRDNAKNTVSLQMNSLKPEDTAVYYCAAVIQSRKYDSWGQGTQVTVSS”, for which the “polyreactivity (PSR sort gate)” value is given as “high polyreactivity”.
Consider “QVQLVESGGGLVQAGGSLRLSCAASGFTVSYNTMGWYRQAPGKERELVAAISARGTSTYYADSVKGRFTISRDNAKNTVYLQMNSLKPEDTAVYYCAAAYRIGSGYWGQGTQVTVSS”, for which the “polyreactivity (PSR sort gate)” value was “high polyreactivity”.
In the case of “QVQLVESGGGLVQAGGSLRLSCAASGFTVWLYAMGWYRQAPGKEREFVAAISTSGGSTYADSVKGRFTISRDNAKKTVYLQMNSLKPEDTAVYYCAADDLPSTGYDYWGQRTQVTVSS”, the “polyreactivity (PSR sort gate)” value is on record as “low polyreactivity”.
In the case of “QVQLVESGGGLVQAGGSLRLSCAASGFTYFGYAMGWYRQAPGKERELVAAISTIDGDTYYADSVKGRFTISRDNAKNTVYLQMNSLKPEDTAVYYCAADDYIDGDDYWGQGTQVTVSS”, the “polyreactivity (PSR sort gate)” value is given as “low polyreactivity”.
In the case of “QVQLVESGGGLVQAGGSLRLSCAASGFTYIYYAMGWYRQAPGKERELVAAITSGGRTYYADSVKGRFTISRDNAKNTVYLQMNSLKPEDTAVYYCAKRFTLPLSEYDYWGQGTQVIVSS”, the “polyreactivity (PSR sort gate)” value is recorded as “high polyreactivity”.
As for “QVQLVESGGGLVQAGGSLRLSCAASGFTYRRYAMGWYRQAPGKERELVAAITWSGGSTYYADSVKGRITISRDNAKNTVYLQMNSLKPEDTAVYYCNKAYSPLYFSYNYWGQGTQVTVSS”, the entry is “high polyreactivity”; as for “QVQLVESGGGLVQAGGSLRLSCAASGFTYYYYAMGWYRQAHGKERELVAAISTRDGNTYYADSVKGRFTISRDNAKNTVYLQMNSLKPEDTAVYYCAADYFRYYPYDYWGQGTLVTVSS”, “low polyreactivity”; as for “QVQLVESGGGLVQAGGSLRLSCAASGFYYYAMGWYRQAPGKERELVAVITYSGGSTYYADSVKGRFTISRDNAKNTVYLQMNSLKPEDTAVYYCAADDYYVALPGLYDYWGQGTQVTVSS”, “low polyreactivity”.
Regarding “QVQLVESGGGLVQAGGSLRLSCAASGGICRYYAMGWYRPAPGKERELVAAISRGGNTKYADSVKGRFTISRDNAKNTVYLQMNSLKPEDTAVYYCNAYTYNRYYWGQGTQVTVSS”, the “polyreactivity (PSR sort gate)” value is “high polyreactivity”.
For “QVQLVESGGGLVQAGGSLRLSCAASGGIFAPNAMGWYRQAPGKERELVAAISTGGGSTRYADSVKGRFTISRDNAKNTVYLQMNSLKPEDTAVYYCAATRVGVRRMDYWGQGTQVTVSS”, the “polyreactivity (PSR sort gate)” value is given as “low polyreactivity”.
On to “QVQLVESGGGLVQAGGSLRLSCAASGGIFAPYAMGWYRQAPGKERELVAAISSSDGSTYYADSVKGSFTISRDNAKNTVYLQMNSLKPEDTAVYYCAADYREDYGYWGQGTQVTVSS”, for which the “polyreactivity (PSR sort gate)” value is on record as “low polyreactivity”.
For “QVQLVESGGGLVQAGGSLRLSCAASGGIFAPYAMGWYRQAPGKERELVADITSDGGSTYYADSVKGRFTISRDNAKNTVYLQMNSLKPEDTAVYYCAAEQRYCWWGHPGDYWGQGTQVTVSS”, the “polyreactivity (PSR sort gate)” value is on record as “low polyreactivity”.
As for “QVQLVESGGGLVQAGGSLRLSCAASGGIFAWYAMGWYRQAPGKERELVAAIDHSGGSTYYADSVKGRFTISRDNAKNTVYLQMNSLKPEDTAVYYCNAGYYGYWEKYDYWGQGTQVTVSS”, the entry is “low polyreactivity”; as for “QVQLVESGGGLVQAGGSLRLSCAASGGIFDIYAMGWYRQAPGKERELVAAIRGSGGRTYYADSVKGRFTISRDNAKNTVYLQMNSLKPEDTAVYYCAARPSIVTGLRYGYWGQGTQVTVSS”, “high polyreactivity”; as for “QVQLVESGGGLVQAGGSLRLSCAASGGIFDTNAMGWYRQAPGKEREFVAAITGSGGSTYYADSVKGRFTISRDNAKNTVYLQMNSLKPEDTAVYYCAAPLSYYWVYIVRYGYDYWGQGTQVTVSS”, “low polyreactivity”.
In the case of “QVQLVESGGGLVQAGGSLRLSCAASGGIFDTYAMGWYRQAPGKERELVAAISRRGGNTYYADSVKGRFTIARDNAKNTVYLQMNSLKPEDTAVYYCAAYYHGRMDYWGQGTQVTVSS”, the “polyreactivity (PSR sort gate)” value is reported as “high polyreactivity”.
Regarding “QVQLVESGGGLVQAGGSLRLSCAASGGIFDTYVMGWYRQAPGKETELVAAISSSGSTTYADSVKGRFTISRDNAKNTVYLQMNSLKPEDTAVYYCNADYSTIWRYDYWGQGTQVTVSS”, the “polyreactivity (PSR sort gate)” value is “low polyreactivity”.
As to “QVQLVESGGGLVQAGGSLRLSCAASGGIFDYYAMGWYRQAPGKERELVAAIRGGGSTNYADSVKGRFTISRDNAKNTVYLQMNSLKPEDTAVYYCAKRAGPEYDYWGQGTQVTVSS”, the “polyreactivity (PSR sort gate)” value is reported as “low polyreactivity”.
The entry for “QVQLVESGGGLVQAGGSLRLSCAASGGIFEAYVMGWYRQAPGKERELVAAISFRGGSTYYADSVKGRFTISRDNAKNTVYLQMNSLKPEDTAVYYCAADYRHQGYDYWGLGTQVTVSS” is “low polyreactivity”; for “QVQLVESGGGLVQAGGSLRLSCAASGGIFEAYVMGWYRQAPGKERELVAAISFRGGSTYYADSVQGRFTISRVNAKNSVYLQMNSLKPEDTAVYYCAADYRHQGYDYWGQGTQVTVSS” it is “low polyreactivity”.
As to “QVQLVESGGGLVQAGGSLRLSCAASGGIFEYYAMGWYRQAPGKERELVAAINTGGNTYYADSVKGRFTISRDNAKNTVYLQMNSLKPEDTAVYYCATDPIWYGGYLSGTDYDYWGQGTQVTVSS”, the “polyreactivity (PSR sort gate)” value is recorded as “low polyreactivity”.
On to “QVQLVESGGGLVQAGGSLRLSCAASGGIFFINAMGWYRQAPGKERELIAAISISDGSTYYADSVKGRFTISRDNAKNTVYLQMNSLKTEDTAVYYCAADYDVLRLGYARIPLYDYWGQGTQVTVSS”, for which the “polyreactivity (PSR sort gate)” value is reported as “low polyreactivity”.
For the sequence “QVQLVESGGGLVQAGGSLRLSCAASGGIFFPNAMGWYRQAPGKERELGAAISWSAGSTYYADSVKGRFTISRDNAKNTVYLQMNSLKPEDTAVYYCAAAGSNYTVWYGYYYWGQGTQVTVSS”, the “polyreactivity (PSR sort gate)” value is “low polyreactivity”.
Consider “QVQLVESGGGLVQAGGSLRLSCAASGGIFFPNAMGWYRQAPGKERELVAAISWSAGSTYYADSVKGRFTISRDNAKNTVYLQMNSLKPEDTAVYYCAAAGSNYTVWYGYYYWGQGTQVTVSS”, for which the “polyreactivity (PSR sort gate)” value is recorded as “low polyreactivity”.
“QVQLVESGGGLVQAGGSLRLSCAASGGIFFRNDMGWYRQAPGKERELVAAISSNGGSTYYADSVKGRFTISRDNAKNTVYLQMNSLKPEDTAVYYCNTGVYSSGGPLDYWGQGTQVTVSS”: the “polyreactivity (PSR sort gate)” value was “low polyreactivity”.
Consider “QVQLVESGGGLVQAGGSLRLSCAASGGIFFSYAMGWYRQAPGKERELVAAIRTNGGTTYYADSVKGRFTISRDNAKNTVYLQMNRLKPEDTAVYYCAALPGGYYDRGEYDYWGQGTQVTVSS”, for which the “polyreactivity (PSR sort gate)” value is “low polyreactivity”.
As to “QVQLVESGGGLVQAGGSLRLSCAASGGIFGDYAMGWYRQEPGKERELVAAINSGDSTNYADSVKGRFTISRDNAKNTVYLQMNSLKPEDTAVYYCNARGYWVYYVEYDYWGQGTQVTVSS”, the “polyreactivity (PSR sort gate)” value was “low polyreactivity”.
With “QVQLVESGGGLVQAGGSLRLSCAASGGIFGKYVMGWYRQAPGKERELVAGISRSAGITYYADSVKGRFTISRDNAKNTVYLQMNSLKPEDTAVYYCNARAWSYPSYHVGYDYWGQGTQVTVSS”, the “polyreactivity (PSR sort gate)” value was “high polyreactivity”.
Take “QVQLVESGGGLVQAGGSLRLSCAASGGIFGWYAMGWYRQAPGKERELVATITWRGGRTYYADSVKGRFTISRDNAKNTVYLQMNSLKPEDTAVYYCNAEWLWYDAGYRYTIRDSWGQGTQVTVSS”: the “polyreactivity (PSR sort gate)” value was “low polyreactivity”.
Take “QVQLVESGGGLVQAGGSLRLSCAASGGIFGYNMGWNRQAPGKEWELVAAITSGGITNYADSVKGRFTISRDNAKNTVYLQMNSLKPQDTAVNYCNRSPGGGKETVLGGDYWGQGTQVTVSS”: the “polyreactivity (PSR sort gate)” value was “low polyreactivity”.
